Test results: publication PMC6821195, “The internal interaction in RBBP5 regulates assembly and activity of MLL1 methyltransferase complex” (Nucleic Acids Research, 2019)
Changes are numbered by the printed parent chain. In names and notes the source's numbering stands. Where two headings read alike, the source gives them in different places.

T1: RBBP5 WD40 propeller (residues 2–333), Q15291
T1 chain: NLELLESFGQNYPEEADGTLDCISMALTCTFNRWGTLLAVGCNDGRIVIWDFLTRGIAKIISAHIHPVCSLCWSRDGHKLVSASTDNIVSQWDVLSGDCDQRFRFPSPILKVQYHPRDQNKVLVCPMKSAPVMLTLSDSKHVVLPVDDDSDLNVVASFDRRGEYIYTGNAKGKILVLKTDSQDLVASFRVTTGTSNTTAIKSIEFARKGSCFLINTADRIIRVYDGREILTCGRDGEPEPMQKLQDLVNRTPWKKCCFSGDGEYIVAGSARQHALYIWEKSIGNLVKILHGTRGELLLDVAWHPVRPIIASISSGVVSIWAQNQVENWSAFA

B1: RBBP5 390-474 (protein)
chain: DEELEDSKALLYLPIAPEVEDPEENPYGPPPDAVQTSLMDEGASSEKKRQSSADGSQPPKKKPKTTNIELQGVPNDEVHPLLGVK
B2: RBBP5_(390–480d) (C-terminal distal region 390–480 with the 422–443 loop deletion) (domain or fragment, human, UniProt Q15291 390-480, looked up)
chain: DEELEDSKALLYLPIAPEVEDPEENPYGPPPDGSQPPKKKPKTTNIELQGVPNDEVHPLLGVKGDGKSK
notes: RBBP5, human, residues 390-480 with the loop 422-443 deleted; also called RBBP5_(CTDM); C-Terminal Distal Minimized; source: Rosetta cells, purified (Ni-NTA, on-beads Ulp1 digestion, SEC)
B3: RBBP5390-480d I457/L459A (protein)
chain: B2 chain with I46A, L48A
B4: RBBP5_(390–480d) (C-terminal distal region 390–480 with the 422–443 loop deletion), Q15291 L399A; L400A; I457A; L459A (protein)
chain: B2 chain with L10A, L11A, I46A, L48A
B5: RBBP5_(CTDM) (RBBP5_(390–480d)) I457A (domain or fragment, human, UniProt Q15291 390-480, looked up)
chain: B2 chain with I46A
notes: RBBP5, human, residues 390-480 with the loop 422-443 deleted, I457A; source: Rosetta cells, purified (Ni-NTA, on-beads Ulp1 digestion, SEC)
B6: RBBP5_(CTDM) (RBBP5_(390–480d)) L399A (domain or fragment, human, UniProt Q15291 390-480, looked up)
chain: B2 chain with L10A
notes: RBBP5, human, residues 390-480 with the loop 422-443 deleted, L399A; source: Rosetta cells, purified (Ni-NTA, on-beads Ulp1 digestion, SEC)
B7: RBBP5_(CTDM) (RBBP5_(390–480d)) L400A (domain or fragment, human, UniProt Q15291 390-480, looked up)
chain: B2 chain with L11A
notes: RBBP5, human, residues 390-480 with the loop 422-443 deleted, L400A; source: Rosetta cells, purified (Ni-NTA, on-beads Ulp1 digestion, SEC)
B8: RBBP5_(CTDM) (RBBP5_(390–480d)) L470A (domain or fragment, human, UniProt Q15291 390-480, looked up)
chain: B2 chain with L59A
notes: RBBP5, human, residues 390-480 with the loop 422-443 deleted, L470A; source: Rosetta cells, purified (Ni-NTA, on-beads Ulp1 digestion, SEC)
B9: RBBP5_(CTDM) (RBBP5_(390–480d)) L459A (domain or fragment, human, UniProt Q15291 390-480, looked up)
chain: B2 chain with L48A
notes: RBBP5, human, residues 390-480 with the loop 422-443 deleted, L459A; source: Rosetta cells, purified (Ni-NTA, on-beads Ulp1 digestion, SEC)
B10: RBBP5 381-480 (protein)
chain: DPIAAFCSSDEELEDSKALLYLPIAPEVEDPEENPYGPPPDAVQTSLMDEGASSEKKRQSSADGSQPPKKKPKTTNIELQGVPNDEVHPLLGVKGDGKSK
B11: RBBP5 WD40 propeller (residues 2–333) (domain or fragment)
chain: T1 chain
B12: RBBP5 C-terminal construct (390–480) (domain or fragment, human, UniProt Q15291 390-480, looked up)
chain: DEELEDSKALLYLPIAPEVEDPEENPYGPPPDAVQTSLMDEGASSEKKRQSSADGSQPPKKKPKTTNIELQGVPNDEVHPLLGVKGDGKSK
notes: RBBP5, human, residues 390-480; also called RBBP5_(390–480); source: Rosetta cells, purified (Ni-NTA, on-beads Ulp1 digestion, SEC)
B13: RBBP5 390-467 (protein)
chain: DEELEDSKALLYLPIAPEVEDPEENPYGPPPDAVQTSLMDEGASSEKKRQSSADGSQPPKKKPKTTNIELQGVPNDEV
B14: RBBP5 C-terminal distal region (residues 381–538) (domain or fragment, human, UniProt Q15291 381-538, looked up)
chain: DPIAAFCSSDEELEDSKALLYLPIAPEVEDPEENPYGPPPDAVQTSLMDEGASSEKKRQSSADGSQPPKKKPKTTNIELQGVPNDEVHPLLGVKGDGKSKKKQAGRPKGSKGKEKDSPFKPKLYKGDRGLPLEGSAKGKVQAELSQPLTAGGAISELL
notes: also called RBBP5CTD; source: Rosetta cells, purified (Ni-NTA, on-beads Ulp1 digestion, SEC)
B15: RBBP5 404-538 (protein)
chain: IAPEVEDPEENPYGPPPDAVQTSLMDEGASSEKKRQSSADGSQPPKKKPKTTNIELQGVPNDEVHPLLGVKGDGKSKKKQAGRPKGSKGKEKDSPFKPKLYKGDRGLPLEGSAKGKVQAELSQPLTAGGAISELL
B16: RBBP5_(393–480) construct (domain or fragment, human, UniProt Q15291 393-480, looked up)
chain: LEDSKALLYLPIAPEVEDPEENPYGPPPDAVQTSLMDEGASSEKKRQSSADGSQPPKKKPKTTNIELQGVPNDEVHPLLGVKGDGKSK
notes: RBBP5, human, residues 393-480; source: Rosetta cells, purified (Ni-NTA, on-beads Ulp1 digestion, SEC)

Legend:
[1] = tested on: RBBP5 CTD3 (Homo sapiens); experiment: fluorescence polarization; conditions: FP: 20 mM HEPES pH 7.4, 150 mM NaCl, 0.1% BSA, 0.1 uM DNA, 25 C, 30 min; EMSA: 20 mM Tris-HCl pH 8.0, 150 mM NaCl, 10% glycerol, 0.1 uM nucleosome, on ice 1 h …
[2] = tested on: RBBP5 2-325 (Homo sapiens); experiment: fluorescence polarization; conditions: FP: 20 mM HEPES pH 7.4, 150 mM NaCl, 0.1% BSA, 0.1 uM DNA, 25 C, 30 min; EMSA: 20 mM Tris-HCl pH 8.0, 150 mM NaCl, 10% glycerol, 0.1 uM nucleosome, on ice 1 h …
[3] = tested on: RBBP5 full-length (Homo sapiens); experiment: fluorescence polarization; conditions: FP: 20 mM HEPES pH 7.4, 150 mM NaCl, 0.1% BSA, 0.1 uM DNA, 25 C, 30 min; EMSA: 20 mM Tris-HCl pH 8.0, 150 mM NaCl, 10% glycerol, 0.1 uM nucleosome, on ice 1 h …
[4] = biological target: B11; experiment: ITC
[5] = biological target: T2, RBBP5 WD40 propeller (residues 2–333) (human, UniProt Q15291 2-333); experiment: ITC; RBBP5 C-terminal constructs, RBBP5_(390–480d) or its mutants (1 mM) injected into 0.1 mM RBBP5_(2–333); 300 mM NaCl, 25 mM Tris–HCl pH 8.0; 20°C; one-site model; conditions: both partners purified
T2 construct: source: Rosetta cells, purified (Ni-NTA, on-beads Ulp1 digestion, SEC)

[6] = biological target: T3, RBBP5 WD40 propeller with residues 10–325 (RBBP5_(10–325)) (human, UniProt Q15291 10-325, selenomethionine (Se-Met derivative protein)); experiment: crystal structure; RBBP5_(10–325) and RBBP5_(390–480d) mixed at 1:2 and purified by SEC; crystals in 0.1 M HEPES-Na pH 7.5, 2% PEG 400, 2.0 M ammonium sulfate, 16°C; Se-Met SAD, 1.8 Å; conditions: both partners purified
T3 construct: RBBP5, human, residues 10-325 (WD40 propeller); native and Se-Met complexes were both crystallised; the solved dataset is of the Se-Met crystal; also called SeMet RBBP5_(10–325); source: Rosetta cells (Se-Met derivative grown in M9 minimal media), purified (Ni-NTA, on-beads Ulp1 digestion, SEC)

[7] = biological target: B11; experiment: ITC
[8] = biological target: T1, RBBP5 WD40 propeller (residues 2–333), …; experiment: ITC; conditions: chain shown with the change; 25mM Tris–HCl, 300 mM NaCl, pH 8.0
[9] = biological target: T4, RBBP5_(390–480d) (C-terminal distal region 390–480 with the 422–443 loop deletion) (human, UniProt Q15291 390-480, 422–443 loop deletion); experiment: ITC
[10] = biological target: T4, RBBP5_(390–480d) (C-terminal distal …); experiment: ITC; remark: listed apart in the source
[11] = biological target: B11; experiment: ITC; 800 mM NaCl
[12] = biological target: B11; experiment: ITC; 300 mM NaCl
[13] = biological target: T2, RBBP5 WD40 propeller (residues 2–333); experiment: ITC; RBBP5_(381–538) (1 mM) titrated into 0.1 mM RBBP5_(2–333); 150 mM NaCl, 25 mM Tris–HCl pH 8.0 (300 and 800 mM NaCl also tested); 20°C; one-site model; conditions: both partners purified

Molecule: FAM-labelled 167-bp dsDNA
- Kd [1]: 13.3 µM
- Kd [2]: 35.1 µM
- Kd [3]: 11.5 µM

Molecule: B1
- Kd [4]: 11.7 µM

Molecule: B2
- binding result [5]: binds
- binding result [6]: binds

Molecule: B3
- Kd [7]: 108 µM

Molecule: B4
- Kd [8]: 369 µM

Molecule: B5
- binding result [5]: binds

Molecule: B6
- Kd [5]: ~70 µM
- fold decrease in affinity against wild-type RBBP5_(CTDM) [5]: ~13 fold

Molecule: B7
- Kd [5]: ~70 µM
- fold decrease in affinity against wild-type RBBP5_(CTDM) [5]: ~13 fold

Molecule: B8
- Kd [8]: 19.1 µM
- binding result [5]: binds

Molecule: B9
- binding result [5]: binds

Molecule: B10
- Kd [4]: 9.6 µM

Molecule: B11
- Kd [9]: 4.3 µM
- Kd [10]: 5.2 µM

Molecule: B12
- Kd [4]: 7.5 µM
- binding result [5]: binds

Molecule: B13
- Kd [4]: 17.3 µM

Molecule: B14
- Kd [11]: 24.6 µM
- Kd [12]: 9.7 µM
- Kd [4]: 9.7 µM
- Kd [13]: 6.8 µM

Molecule: B15
- Kd [4]: 59.8 µM

Molecule: B16
- Kd [4]: 20.3 µM
- binding result [5]: binds
